Experimental data taken from publication PMC11436023.

Assays:
[1] = target: SpyCatcher mi3 nanoparticle; assay: negative stain electron microscopy; NPs alone or after coupling, on glow-discharged carbon-coated grids, 2% uranyl acetate; 2D classification and ~20 Å 3D maps with icosahedral symmetry imposed
[2] = target: CAP255 gp140 SpyTag (HIV-1 subtype C (patient CAP255)); assay: SEC + native gel or EMSA; lectin-purified CAP255 gp140 SpyTag on HiLoad 16/600 Superdex 200 pg; fractions on Blue NativePAGE 3-12% Bis-Tris gels, Coomassie
[3] = target: SpyCatcher mi3 nanoparticle; assay: cryo-EM structure; CAP255 gp140 SpyTag-SpyCatcher mi3 NPs; whole NP 9.4 Å (icosahedral), masked mi3 5.4 Å, single Env trimer-SpyCatcher 17.7 Å without symmetry
[4] = target: SpyCatcher mi3 nanoparticle; assay: covalent SpyTag-SpyCatcher coupling, read by SDS-PAGE; MBP SpyTag mixed with SpyCatcher mi3 NPs at 1:1 and 1:2 molar ratios, 4 °C overnight, TBS (25 mM Tris-HCl, 300 mM NaCl, pH 8.5); Coomassie-stained SDS-PAGE, band intensities quantified

| Substance | stoichiometry N (Env trimers per NP) [1] | stoichiometry N [2] | stoichiometry N (Env trimers per NP) [3] | coupling efficiency [4] | stoichiometry N (MBP monomers per NP) [4] |
| --- | --- | --- | --- | --- | --- |
| CAP255 gp140 SpyTag (domain or fragment) | 12 | 3 | 12 | – | – |
| MBP SpyTag | – | – | – | 100% | 60 |
